Article PMC9638722, “Light regulates xylem cell differentiation via PIF in Arabidopsis”

T1: PIF4 (Arabidopsis thaliana, UniProt Q8W2F3 1-430)
T1 sequence: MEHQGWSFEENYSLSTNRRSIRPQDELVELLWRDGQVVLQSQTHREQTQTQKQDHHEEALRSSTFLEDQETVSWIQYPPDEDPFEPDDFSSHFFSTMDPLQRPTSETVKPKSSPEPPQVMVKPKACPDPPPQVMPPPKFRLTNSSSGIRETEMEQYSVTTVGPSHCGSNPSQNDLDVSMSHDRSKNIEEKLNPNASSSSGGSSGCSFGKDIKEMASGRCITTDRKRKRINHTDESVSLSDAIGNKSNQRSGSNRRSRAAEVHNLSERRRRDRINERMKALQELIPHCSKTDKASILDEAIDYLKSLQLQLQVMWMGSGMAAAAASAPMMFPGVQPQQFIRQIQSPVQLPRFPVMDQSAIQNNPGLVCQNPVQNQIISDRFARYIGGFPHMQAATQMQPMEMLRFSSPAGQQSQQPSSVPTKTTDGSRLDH

B1: pPIL1 G-box (dsDNA)
DNA 1: TAATGGCGTGAAGGTTCTTTCCGCTCACGTGGGCCTTTTG
DNA 2: CAAAAGGCCCACGTGAGCGGAAAGAACCTTCACGCCATTA
B2: pCLE44 PBE1 WT (dsDNA)
DNA 1: GTAATATAGTGAGGTGGTCACATGTAATGGATTCAATCCAC
DNA 2: GTGGATTGAATCCATTACATGTGACCACCTCACTATATTAC

Experiments:
[1] = target: T1, PIF4; assay: EMSA; positive control; EMSA according to Martinez et al. 2018 with minor modifications, LightShift chemiluminescent kit; buffer, salt, pH and temperature not stated; conditions: protein: ivt; label: 5' biotin; blunt
[2] = target: T1, PIF4; assay: EMSA; EMSA according to Martinez et al. 2018 with minor modifications, LightShift chemiluminescent kit; buffer, salt, pH and temperature not stated; conditions: protein: ivt; label: 5' biotin (probe); blunt

Binder	binding result [1]	binding result [2]
B1	binds	–
B2	–	binds
